From patent publication US20160195541A1
Where “and” joins values, the source holds several entries; their conditions need not be identical. Equal values may be shown once. One block for each molecule: values may come before it.

Assays:
[1] = target: aggregated human IgG (aggregated Beriglobin, aggregated fraction isolated by size exclusion chromatography) (human); test: FACS competition on Raji cells (FACS021), inhibition of aggregated IgG binding to cell FcγRIIB at 0.0625 µg/µL
[2] = target: aggregated human IgG (aggregated Beriglobin, aggregated fraction isolated by size exclusion chromatography) (human); test: apparent KD, FACS competition on Raji cells, mean of 25 experiments
[3] = target: aggregated human IgG (aggregated Beriglobin, aggregated fraction isolated by size exclusion chromatography) (human); test: FACS competition on Raji cells (FACS007), inhibition of aggregated IgG binding to cell FcγRIIB at 0.03125 µg/µL SM101
[4] = target: aggregated human IgG (aggregated Beriglobin, aggregated fraction isolated by size exclusion chromatography) (human); test: FACS competition on Raji cells (FACS007), inhibition of aggregated IgG binding to cell FcγRIIB at 0.25 µg/µL SM101
[5] = target: aggregated human IgG (aggregated Beriglobin, aggregated fraction isolated by size exclusion chromatography) (human); test: FACS competition on Raji cells (FACS007), inhibition of aggregated IgG binding to cell FcγRIIB at 0.0078 µg/µL SM101
[6] = target: aggregated human IgG (aggregated Beriglobin, aggregated fraction isolated by size exclusion chromatography) (human); test: apparent KA, Langmuir fit of FACS competition on Raji cells (FACS021)
[7] = target: aggregated human IgG (aggregated Beriglobin, aggregated fraction isolated by size exclusion chromatography) (human); test: apparent KD, Langmuir fit of FACS competition on Raji cells (FACS021)
[8] = target: aggregated human IgG (aggregated Beriglobin, aggregated fraction isolated by size exclusion chromatography) (human); test: apparent KD, Langmuir fit of FACS competition on Raji cells (FACS007)
[9] = target: aggregated human IgG (aggregated Beriglobin, aggregated fraction isolated by size exclusion chromatography) (human); test: FACS competition on Raji cells (FACS007), inhibition of aggregated IgG binding to cell FcγRIIB at 0.5 µg/µL SM101
[10] = target: aggregated human IgG (aggregated Beriglobin, aggregated fraction isolated by size exclusion chromatography) (human); test: FACS competition on Raji cells (FACS007), inhibition of aggregated IgG binding to cell FcγRIIB at 0.0156 µg/µL SM101
[11] = target: aggregated human IgG (aggregated Beriglobin, aggregated fraction isolated by size exclusion chromatography) (human); test: apparent KA, Langmuir fit of FACS competition on Raji cells (FACS007)
[12] = target: aggregated human IgG (aggregated Beriglobin, aggregated fraction isolated by size exclusion chromatography) (human); test: sigmoid logistic fit of FACS competition on Raji cells (FACS007): inhibition of aggregated IgG binding to cell FcγRIIB
[13] = target: aggregated human IgG (aggregated Beriglobin, aggregated fraction isolated by size exclusion chromatography) (human); test: FACS competition on Raji cells (FACS007), inhibition of aggregated IgG binding to cell FcγRIIB at 0.0625 µg/µL SM101
[14] = target: aggregated human IgG (aggregated Beriglobin, aggregated fraction isolated by size exclusion chromatography) (human); test: FACS competition on Raji cells, mean of 25 experiments
[15] = target: aggregated human IgG (aggregated Beriglobin, aggregated fraction isolated by size exclusion chromatography) (human); test: apparent KD, FACS competition on Raji cells (Example 1), as told in the description
[16] = target: aggregated human IgG (aggregated Beriglobin, aggregated fraction isolated by size exclusion chromatography) (human); test: FACS competition on Raji cells (FACS021), inhibition of aggregated IgG binding to cell FcγRIIB at 0.03125 µg/µL
[17] = target: aggregated human IgG (aggregated Beriglobin, aggregated fraction isolated by size exclusion chromatography) (human); test: FACS competition on Raji cells (FACS007), inhibition of aggregated IgG binding to cell FcγRIIB at 0.125 µg/µL SM101
[18] = target: aggregated human IgG (aggregated Beriglobin, aggregated fraction isolated by size exclusion chromatography) (human); test: apparent KD, FACS competition on Raji cells, mean of tests #18-25
[19] = target: aggregated human IgG (aggregated Beriglobin, aggregated fraction isolated by size exclusion chromatography) (human); test: sigmoid logistic fit of FACS competition on Raji cells (FACS021): inhibition of aggregated IgG binding to cell FcγRIIB
[20] = target: aggregated human IgG (aggregated Beriglobin, aggregated fraction isolated by size exclusion chromatography) (human); test: apparent KD, FACS competition on Raji cells, mean of tests #1-17 without #4 and #6
[21] = target: aggregated human IgG (aggregated Beriglobin, aggregated fraction isolated by size exclusion chromatography) (human); test: FACS competition control on Raji cells: constant aggregated Beriglobin, CSA in place of SM101; bound aggregated IgG detected with anti-human IgG(H+L)-PE; interaction tested for blocking: aggregated IgG with membrane-bound FcγRIIB
[22] = SM101 investigational medicinal product

- norm. Signal (% inhibition) [1, 22]: 89.6%
- norm. Signal (% inhibition) ([1]; SM101 reference standard): 87.3%
- Kd [2]: 530 nM
- norm. Signal (% inhibition) [3]: 70.5%
- norm. Signal (% inhibition) [4]: 98.4%
- norm. Signal (% inhibition) [5]: 23.2%
- Ka [6]: 1.35e+06 M⁻¹ and 1.11e+06 M⁻¹
- Kd [7]: 740 nM and 900 nM
- Kd [8]: 990 nM
- norm. Signal (% inhibition) [9]: 97.3%
- norm. Signal (% inhibition) [10]: 43%
- Ka [11]: 1.02e+06 M⁻¹
- IC50 [12]: 17.7 µg/mL
- norm. Signal (% inhibition) [13]: 91.2%
- IC50 [14]: 10.6 µg/mL
- Kd [15]: 980 nM
- norm. Signal (% inhibition) [16, 22]: 75.7%
- norm. Signal (% inhibition) ([16]; SM101 reference standard): 75.9%
- norm. Signal (% inhibition) [17]: 94.9%
- Kd [18]: 260 nM
- IC50 [19]: 12.9 µg/mL and 16.2 µg/mL
- Kd [20]: 680 nM
Molecule: SM101 (soluble human FcγRIIB, sFcγRIIB) (from UniProt P31994 46-217) (receptor)

- Median PE-A of aggregated IgG bound to Raji cells at 0.0156 µg/µL CSA [21]: 3770
- Median PE-A of aggregated IgG bound to Raji cells at 0.03125 µg/µL CSA [21]: 3700
- Median PE-A of aggregated IgG bound to Raji cells at 0.0625 µg/µL CSA [21]: 3830
- Median PE-A of aggregated IgG bound to Raji cells at 0.125 µg/µL CSA [21]: 4140
- Median PE-A of aggregated IgG bound to Raji cells at 0.25 µg/µL CSA [21]: 4570
- Median PE-A of aggregated IgG bound to Raji cells at 0.5 µg/µL CSA [21]: 4940
- Median PE-A of aggregated IgG bound to Raji cells at the CSA concentration labelled 0'078 (0.0078 µg/µL by the series in legend paragraph 80) [21]: 4180
B1: chicken serum albumin (protein, UniProt P19121 24-615, looked up)
Albumin: FARDAEHKSEIAHRYNDLKEETFKAVAMITFAQYLQRCSYEGLSKLVKDVVDLAQKCVANEDAPECSKPLPSIILDEICQVEKLRDSYGAMADCCSKADPERNECFLSFKVSQPDFVQPYQRPASDVICQEYQDNRVSFLGHFIYSVARRHPFLYAPAILSFAVDFEHALQSCCKESDVGACLDTKEIVMREKAKGVSVKQQYFCGILKQFGDRVFQARQLIYLSQKYPKAPFSEVSKFVHDSIGVHKECCEGDMVECMDDMARMMSNLCSQQDVFSGKIKDCCEKPIVERSQCIMEAEFDEKPADLPSLVEKYIEDKEVCKSFEAGHDAFMAEFVYEYSRRHPEFSIQLIMRIAKGYESLLEKCCKTDNPAECYANAQEQLNQHIKETQDVVKTNCDLLHDHGEADFLKSILIRYTKKMPQVPTDLLLETGKKMTTIGTKCCQLGEDRRMACSEGYLSIVIHDTCRKQETTPINDNVSQCCSQLYANRRPCFTAMGVDTKYVPPPFNPDMFSFDEKLCSAPAEEREVGQMKLLINLIKRKPQMTEEQIKTIADGFTAMVDKCCKQSDINTCFGEEGANLIVQSRATLGIGA
